Consider one molecule from patent US20230242654A1, “REAGENTS FOR EXPANDING CELLS EXPRESSING RECOMBINANT RECEPTORS” (Juno Therapeutics, Inc., priority 2017, published 2023).

What all share (format): cell-based, human
Assay [1] has as its system CD4+ or CD8+ CAR-expressing T cells. Put plainly: Expansion after serial restimulation, 4 rounds in 14 days. As for the experimental part: The ability of cells to expand ex vivo following repeated stimulations may be a potential surrogate for capacity of CAR+ T cells to persist (e.g. following initial activation) and/or is indicative of function in vivo (Zhao et al. (2015) Cancer Cell, 28:415-28). CAR+ T cells were generated as described above and thawed CD4+ or CD8+ CAR-expressing T cells were plated separately at 50,000 CAR+ cells/well. Anti-ID B-1 conjugated beads were added to cells at a 1:1 or 1:5 cell:bead ratio in the presence or absence of cytokines as described in Example 10. As a control, anti-CD3/anti-CD28 magnetic beads were added to cells at a 3:1 cell:bead ratio in the presence or absence of the cytokines. Cells were harvested every 3-4 days and counted, and restimulated with new […] using the same culture conditions after resetting cell number to initial seeding density for each round. A total of 4 rounds of stimulation during a 14 day culture period were carried out. For each round of stimulation, the number of doublings was determined.

In assay [2] the test system is T cells transduced with anti-CD19 CAR having an scFv derived from FMC63. Description: Cytokine levels and phenotype at thaw versus after 9 days with anti-ID B-1 conjugated beads. To be noted: 9 days with beads versus immediately after thaw. The source says: CD3-purified T cells were isolated from peripheral blood mononuclear cells (PBMCs) of two donor patients, transduced with a viral vector encoding an anti-CD19 CAR having an scFv derived from FMC63 and expanded in culture with anti-CD3 and anti-CD28 antibody coated beads. After expansion, the expanded T cells were frozen by cryopreservation. For the studies, frozen T cells were thawed and CD4+ and CD8+ T cells assessed for intracellular cytokine levels or surface phenotype (d=0) or thawed CD4+, CD8+, or CD4+/CD8+ co-culture T cells were cultured for an additional 9 days in the presence of anti-ID B-1 conjugated beads prior to assessing intracellular cytokine levels and surface marker phenotype following stimulation by PMA/ionomycin or CD19 transduced K562 cells (d=9).
For assessment of intracellular cytokine levels, Golgi inhibitor was added for 4 hours and then TNFα, IFNγ, and IL-2 was assessed by flow cytometry. For all conditions, the extent of intracellular cytokine expression was substantially greater when cells were stimulated in with PMA/ionomycin as compared to CAR-specific stimulation with CD19 transduced K562 cells. […] Similar results were obtained in cells from the two donors.
Surface expression of the activation marker CD25, surface expression of inhibitory receptors PD-1 and LAG-3, and nuclear expression of the proliferation marker Ki-67 were also assessed in CD4+ or CD8+ cells immediately after thaw (d=0) or in CD4+ or CD8+ T cells expanded alone or as a CD4/CD8 co-culture for an additional 9 days in the presence of the anti-ID conjugated beads (d=9).

Another assay has as its system anti-CD19 CAR+ T cells. Put plainly: Chronic stimulation assay, 14 days with anti-ID conjugated beads, then K562-CD19 challenge. To be noted: 14 days CAR-specific stimulation versus none; E:T 1:1. The source says: Separate compositions of CD4+ and CD8+ cells were isolated from human donors, activated and transduced with a viral vector encoding an anti-CD19 CAR having an scFv derived from FMC63. CD4+ and CD8+ T cells from each donor were then separately harvested, formulated, and cryofrozen. The cryofrozen engineered CD4+ and CD8+ T cells were thawed and formulated at a 1:1 ratio of CD4+ and CD8+ T cells from the same donor to generate a T cell composition containing CAR+ T cells. Anti-ID conjugated beads against the anti-CD19 CAR were incubated with cells at a 1:1 bead:cell ratio for 14 days.
[…] The primary response of T cells from the T cell composition that had not been incubated with the anti-ID conjugated beads also was determined by similar stimulation with antigen-expressing cells (Day 0; “primary”). […] Killing activity was assessed by measuring the loss of viable target cells over 72 hours, as determined by loss of fluorescent signal over time by kinetic fluorescence microscopy (using the INCUCYTE® Live Cell Analysis System, Essen Bioscience). Killing index was determined as the inverse of the area under the curve (AUC) for target fluorescence over time. Intracellular cytokine levels of IL-2 and TNF-alpha also was assessed by flow cytometry in co-cultured T cells after incubation in the presence of Golgi inhibitor. […]

B1: anti-ID conjugated beads: FMC63-derived scFv-specific anti-idiotype antibody (B-1 in Examples 10-14) covalently coupled to tosyl-activated magnetic beads (conjugate)
heavy: EVQLQQSGPELVKPGASVKMSCKASGYTFTDYYMKWVKQCHGKSLEWIGDINPNNGGTDYNQNFKGKATLTVDKSSSTAYMQLNSLTSEDSAVYYCAREGNNYGSRDAMDYWGQGTSVTVSSAKTTAPSVYPLAPVCGDTTGSSVTLGCLVKGYFPEPVTLTWNSGSLSSGVHTFPAVLQSDLYTLSSSVTVTSSTWPSQSITCNVAHPASSTKVDKKIEPRGPTIKPCPPCKCPAPNLLGGPSVFIFPPKIKDVLMISLSPIVTCVVVDVSEDDPDVQISWFVNNVEVHTAQTQTHREDYNSTLRVVSALPIQHQDWMSGKEFKCKVNNKDLPAPIERTISKPKGSVRAPQVYVLPPPEEEMTKKQVTLTCMVTDFMPEDIYVEWTNNGKTELNYKNTEPVLDSDGSYFMYSKLRVEKKNWVERNSYSCSVVHEGLHNHHTTKSFSRTPGK
light: QIVLTQSPALMSASPGEKVTMTCSASSGVIYMYWYQQKPRSSPKPWIYLTSNLASGVPARFSGSGSGTSYSLTISSMEAEDAATYYCQQWSSNPLTFGAGTKLELKRADAAPTVSIFPPSSEQLTSGGASVVCFLNNFYPKDINVKWKIDGSERQNGVLNSWTDQDSKDSTYSMSSTLTLTKDEYERHNSYTCEATHKTSTSPIVKSFNRNEC
Consider B1, for which the “expansion of CAR-expressing (EGFRt+) CD4+ cells after restimulation” value in assay [1] (1:1 or 1:5 cell:bead, 4 rounds) is reported as “continued cell expansion”. In addition, in assay [1] (versus anti-CD3/anti-CD28 beads), the “extent of expansion of CD4+ cells” value is reported as “the extent of expansion was greater”. The “expansion of CD8+ T cells” value in assay [1] (versus anti-CD3/anti-CD28 beads, particularly without recombinant cytokines) is “expansion was somewhat greater”. Moreover, in assay [2], the “expression of CD25 and Ki-67” value is on record as “reduced expression of CD25, but not Ki-67”; the “expression of PD-1 and LAG-3” value was “decreased expression of PD-1 and LAG-3”; the “levels of IFNγ” value is given as “Increased levels of IFNγ”. In the assay with anti-CD19 CAR+ T cells, the “Intracellular cytokine levels of IL-2 and TNF-alpha” value is given as “also were reduced”.
